Results taken from patent US20260234610, “NOVEL CAS12A PROTEIN, VARIANT OF NOVEL CAS12A PROTEIN, AND USE THEREOF FOR EUKARYOTIC GENOME EDITING” (NSAGE CORP., published 2026).
Numbering of substitutions follows the chain as printed.

How the values were obtained:
Assay in all cases: cell_activity; PAM TTTV/TTTN; RNP in HEK293T
Settings in all cases: tags: NLS, His6
[1] = biological target: ID218 Cas12a
Procedure: (§1) To confirm the in vivo gene editing activity of the CRISPR enzymes according to Experimental Example 4.1, the following experiments were performed: [0474] 1) CRISPR/Cas12a complexes were assembled according to Experimental Example 1.5 using CRISPR enzymes prepared according to Experimental Example 4.1 and guide RNAs. [0475] 2) The CRISPR/Cas12a complexes assembled in 1) were transfected into HEK293T cells according to Experimental Example 1.8, and gene editing activity was measured.

[2] = biological target: T1, ID233 Cas12a
T1 chain: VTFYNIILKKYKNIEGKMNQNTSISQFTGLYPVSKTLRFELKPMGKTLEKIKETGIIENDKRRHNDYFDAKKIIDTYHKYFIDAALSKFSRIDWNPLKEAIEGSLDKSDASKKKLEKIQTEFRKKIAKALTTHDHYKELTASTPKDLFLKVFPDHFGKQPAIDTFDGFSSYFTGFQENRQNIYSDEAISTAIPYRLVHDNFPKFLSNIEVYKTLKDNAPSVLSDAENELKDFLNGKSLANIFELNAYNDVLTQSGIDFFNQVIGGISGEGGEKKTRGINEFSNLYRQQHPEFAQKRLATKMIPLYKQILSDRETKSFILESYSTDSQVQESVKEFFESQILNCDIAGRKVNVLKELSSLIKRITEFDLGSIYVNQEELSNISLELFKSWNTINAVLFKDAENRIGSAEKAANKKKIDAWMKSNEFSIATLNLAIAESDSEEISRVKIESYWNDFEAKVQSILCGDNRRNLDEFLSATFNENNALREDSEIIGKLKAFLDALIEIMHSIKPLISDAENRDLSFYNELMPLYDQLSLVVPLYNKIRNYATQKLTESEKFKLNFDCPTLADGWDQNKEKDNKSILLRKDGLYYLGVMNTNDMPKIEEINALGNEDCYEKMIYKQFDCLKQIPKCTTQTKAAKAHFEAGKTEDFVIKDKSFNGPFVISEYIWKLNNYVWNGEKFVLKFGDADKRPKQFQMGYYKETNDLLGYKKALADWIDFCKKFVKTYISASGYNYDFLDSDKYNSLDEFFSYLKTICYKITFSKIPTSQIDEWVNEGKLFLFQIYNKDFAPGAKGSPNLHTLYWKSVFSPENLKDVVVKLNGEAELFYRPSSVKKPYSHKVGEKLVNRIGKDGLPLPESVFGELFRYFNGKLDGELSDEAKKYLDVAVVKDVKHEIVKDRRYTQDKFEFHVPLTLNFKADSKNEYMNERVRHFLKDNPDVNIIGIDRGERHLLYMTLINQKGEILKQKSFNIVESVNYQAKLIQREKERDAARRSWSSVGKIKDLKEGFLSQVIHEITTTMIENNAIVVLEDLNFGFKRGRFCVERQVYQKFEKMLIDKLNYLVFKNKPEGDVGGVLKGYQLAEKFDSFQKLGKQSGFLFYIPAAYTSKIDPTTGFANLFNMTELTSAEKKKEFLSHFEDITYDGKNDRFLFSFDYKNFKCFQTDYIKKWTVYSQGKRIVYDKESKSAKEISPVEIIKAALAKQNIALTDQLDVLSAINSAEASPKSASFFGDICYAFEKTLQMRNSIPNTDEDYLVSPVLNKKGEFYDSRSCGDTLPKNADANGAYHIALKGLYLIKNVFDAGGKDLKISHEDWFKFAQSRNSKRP
Procedure: as §1

[3] = biological target: T2, ID236 Cas12a
T2 chain: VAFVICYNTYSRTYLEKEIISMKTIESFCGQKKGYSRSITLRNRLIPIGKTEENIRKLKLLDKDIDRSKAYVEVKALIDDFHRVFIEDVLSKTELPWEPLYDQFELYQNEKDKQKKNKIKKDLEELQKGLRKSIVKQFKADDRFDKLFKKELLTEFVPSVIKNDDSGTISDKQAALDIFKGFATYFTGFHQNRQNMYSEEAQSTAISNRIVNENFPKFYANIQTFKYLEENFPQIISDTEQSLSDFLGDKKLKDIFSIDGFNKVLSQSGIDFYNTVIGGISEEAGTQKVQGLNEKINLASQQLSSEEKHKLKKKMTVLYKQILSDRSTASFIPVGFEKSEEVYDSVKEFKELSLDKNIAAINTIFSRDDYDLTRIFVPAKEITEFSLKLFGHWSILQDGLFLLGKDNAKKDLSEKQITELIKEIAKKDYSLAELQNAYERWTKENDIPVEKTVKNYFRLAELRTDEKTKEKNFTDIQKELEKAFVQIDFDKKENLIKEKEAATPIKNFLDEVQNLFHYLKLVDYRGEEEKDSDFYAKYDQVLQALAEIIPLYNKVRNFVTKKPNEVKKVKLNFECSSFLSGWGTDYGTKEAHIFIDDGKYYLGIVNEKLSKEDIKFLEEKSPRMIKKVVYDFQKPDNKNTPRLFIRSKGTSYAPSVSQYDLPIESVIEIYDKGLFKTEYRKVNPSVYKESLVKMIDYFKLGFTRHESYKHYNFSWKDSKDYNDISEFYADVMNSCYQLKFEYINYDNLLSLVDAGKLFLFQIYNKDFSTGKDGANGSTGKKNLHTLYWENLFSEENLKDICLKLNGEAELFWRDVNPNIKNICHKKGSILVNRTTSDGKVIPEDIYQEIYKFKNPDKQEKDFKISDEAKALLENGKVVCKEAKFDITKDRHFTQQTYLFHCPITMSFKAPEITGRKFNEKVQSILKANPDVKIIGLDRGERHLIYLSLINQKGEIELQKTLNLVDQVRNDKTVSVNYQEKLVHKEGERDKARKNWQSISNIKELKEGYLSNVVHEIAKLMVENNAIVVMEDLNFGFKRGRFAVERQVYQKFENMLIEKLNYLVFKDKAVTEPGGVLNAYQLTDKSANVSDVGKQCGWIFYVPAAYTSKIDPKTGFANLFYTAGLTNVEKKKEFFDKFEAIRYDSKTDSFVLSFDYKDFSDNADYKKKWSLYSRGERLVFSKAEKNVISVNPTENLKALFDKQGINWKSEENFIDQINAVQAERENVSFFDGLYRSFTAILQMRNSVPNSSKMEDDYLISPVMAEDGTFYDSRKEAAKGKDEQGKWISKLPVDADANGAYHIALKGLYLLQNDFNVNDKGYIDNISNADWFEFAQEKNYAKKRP
Procedure: as §1

B1: 218 crRNA MTAP ; MTAP target (ssRNA ; dsDNA)
RNA: UAAUUUCUACUAAGUGUAGAUGCCCCAAUAAUCCCCACAUGUCA
DNA 1: GCCCCAATAATCCCCACATGTCA
DNA 2: TGACATGTGGGGATTATTGGGGC
B1 gave an activity [1] of 90.4 % indel.

B2: 218 crRNA DYRK1A ; DYRK1A target (ssRNA ; dsDNA)
RNA: UAAUUUCUACUAAGUGUAGAUGAAGCACAUCAAGGACAUUCUAA
DNA 1: GAAGCACATCAAGGACATTCTAA
DNA 2: TTAGAATGTCCTTGATGTGCTTC
B2 gave an activity [1] of 71 % indel.

B3: 233 crRNA MTAP ; MTAP target (ssRNA ; dsDNA)
RNA: AAAAUUUCUACUCUUGUAGAUGCCCCAAUAAUCCCCACAUGUCA
DNA 1: GCCCCAATAATCCCCACATGTCA
DNA 2: TGACATGTGGGGATTATTGGGGC
In the case of B3, the activity [2] is reported as 14.8 % indel.

B4: 233 crRNA DYRK1A ; DYRK1A target (ssRNA ; dsDNA)
RNA: AAAAUUUCUACUCUUGUAGAUGAAGCACAUCAAGGACAUUCUAA
DNA 1: GAAGCACATCAAGGACATTCTAA
DNA 2: TTAGAATGTCCTTGATGTGCTTC
B4 showed an activity [2] of 12.2 % indel.

B5: 236 crRNA MTAP ; MTAP target (ssRNA ; dsDNA)
RNA: B3 RNA with A1U, C13G
DNA 1: GCCCCAATAATCCCCACATGTCA
DNA 2: TGACATGTGGGGATTATTGGGGC
B5 showed an activity [3] of 17 % indel.

B6: 236 crRNA DYRK1A ; DYRK1A target (ssRNA ; dsDNA)
RNA: B4 RNA with A1U, C13G
DNA 1: GAAGCACATCAAGGACATTCTAA
DNA 2: TTAGAATGTCCTTGATGTGCTTC
In the case of B6, the activity [3] is reported as 5.2 % indel.
